In general, Kd refers to the concentration at which binding is half-saturated. Lower therefore signals tighter binding.

This passage reports Kd results from paper PMC5121336 (2016).

In this experiment the target is human LDL (low-density lipoprotein) (human). Description: SPR; LDL saturated with ALK1ecto. (In SPR one partner is held on a chip, and binding of the other changes the refractive index at the surface.)
human LDL (low-density lipoprotein) (human), sequence (P04114 28-4563): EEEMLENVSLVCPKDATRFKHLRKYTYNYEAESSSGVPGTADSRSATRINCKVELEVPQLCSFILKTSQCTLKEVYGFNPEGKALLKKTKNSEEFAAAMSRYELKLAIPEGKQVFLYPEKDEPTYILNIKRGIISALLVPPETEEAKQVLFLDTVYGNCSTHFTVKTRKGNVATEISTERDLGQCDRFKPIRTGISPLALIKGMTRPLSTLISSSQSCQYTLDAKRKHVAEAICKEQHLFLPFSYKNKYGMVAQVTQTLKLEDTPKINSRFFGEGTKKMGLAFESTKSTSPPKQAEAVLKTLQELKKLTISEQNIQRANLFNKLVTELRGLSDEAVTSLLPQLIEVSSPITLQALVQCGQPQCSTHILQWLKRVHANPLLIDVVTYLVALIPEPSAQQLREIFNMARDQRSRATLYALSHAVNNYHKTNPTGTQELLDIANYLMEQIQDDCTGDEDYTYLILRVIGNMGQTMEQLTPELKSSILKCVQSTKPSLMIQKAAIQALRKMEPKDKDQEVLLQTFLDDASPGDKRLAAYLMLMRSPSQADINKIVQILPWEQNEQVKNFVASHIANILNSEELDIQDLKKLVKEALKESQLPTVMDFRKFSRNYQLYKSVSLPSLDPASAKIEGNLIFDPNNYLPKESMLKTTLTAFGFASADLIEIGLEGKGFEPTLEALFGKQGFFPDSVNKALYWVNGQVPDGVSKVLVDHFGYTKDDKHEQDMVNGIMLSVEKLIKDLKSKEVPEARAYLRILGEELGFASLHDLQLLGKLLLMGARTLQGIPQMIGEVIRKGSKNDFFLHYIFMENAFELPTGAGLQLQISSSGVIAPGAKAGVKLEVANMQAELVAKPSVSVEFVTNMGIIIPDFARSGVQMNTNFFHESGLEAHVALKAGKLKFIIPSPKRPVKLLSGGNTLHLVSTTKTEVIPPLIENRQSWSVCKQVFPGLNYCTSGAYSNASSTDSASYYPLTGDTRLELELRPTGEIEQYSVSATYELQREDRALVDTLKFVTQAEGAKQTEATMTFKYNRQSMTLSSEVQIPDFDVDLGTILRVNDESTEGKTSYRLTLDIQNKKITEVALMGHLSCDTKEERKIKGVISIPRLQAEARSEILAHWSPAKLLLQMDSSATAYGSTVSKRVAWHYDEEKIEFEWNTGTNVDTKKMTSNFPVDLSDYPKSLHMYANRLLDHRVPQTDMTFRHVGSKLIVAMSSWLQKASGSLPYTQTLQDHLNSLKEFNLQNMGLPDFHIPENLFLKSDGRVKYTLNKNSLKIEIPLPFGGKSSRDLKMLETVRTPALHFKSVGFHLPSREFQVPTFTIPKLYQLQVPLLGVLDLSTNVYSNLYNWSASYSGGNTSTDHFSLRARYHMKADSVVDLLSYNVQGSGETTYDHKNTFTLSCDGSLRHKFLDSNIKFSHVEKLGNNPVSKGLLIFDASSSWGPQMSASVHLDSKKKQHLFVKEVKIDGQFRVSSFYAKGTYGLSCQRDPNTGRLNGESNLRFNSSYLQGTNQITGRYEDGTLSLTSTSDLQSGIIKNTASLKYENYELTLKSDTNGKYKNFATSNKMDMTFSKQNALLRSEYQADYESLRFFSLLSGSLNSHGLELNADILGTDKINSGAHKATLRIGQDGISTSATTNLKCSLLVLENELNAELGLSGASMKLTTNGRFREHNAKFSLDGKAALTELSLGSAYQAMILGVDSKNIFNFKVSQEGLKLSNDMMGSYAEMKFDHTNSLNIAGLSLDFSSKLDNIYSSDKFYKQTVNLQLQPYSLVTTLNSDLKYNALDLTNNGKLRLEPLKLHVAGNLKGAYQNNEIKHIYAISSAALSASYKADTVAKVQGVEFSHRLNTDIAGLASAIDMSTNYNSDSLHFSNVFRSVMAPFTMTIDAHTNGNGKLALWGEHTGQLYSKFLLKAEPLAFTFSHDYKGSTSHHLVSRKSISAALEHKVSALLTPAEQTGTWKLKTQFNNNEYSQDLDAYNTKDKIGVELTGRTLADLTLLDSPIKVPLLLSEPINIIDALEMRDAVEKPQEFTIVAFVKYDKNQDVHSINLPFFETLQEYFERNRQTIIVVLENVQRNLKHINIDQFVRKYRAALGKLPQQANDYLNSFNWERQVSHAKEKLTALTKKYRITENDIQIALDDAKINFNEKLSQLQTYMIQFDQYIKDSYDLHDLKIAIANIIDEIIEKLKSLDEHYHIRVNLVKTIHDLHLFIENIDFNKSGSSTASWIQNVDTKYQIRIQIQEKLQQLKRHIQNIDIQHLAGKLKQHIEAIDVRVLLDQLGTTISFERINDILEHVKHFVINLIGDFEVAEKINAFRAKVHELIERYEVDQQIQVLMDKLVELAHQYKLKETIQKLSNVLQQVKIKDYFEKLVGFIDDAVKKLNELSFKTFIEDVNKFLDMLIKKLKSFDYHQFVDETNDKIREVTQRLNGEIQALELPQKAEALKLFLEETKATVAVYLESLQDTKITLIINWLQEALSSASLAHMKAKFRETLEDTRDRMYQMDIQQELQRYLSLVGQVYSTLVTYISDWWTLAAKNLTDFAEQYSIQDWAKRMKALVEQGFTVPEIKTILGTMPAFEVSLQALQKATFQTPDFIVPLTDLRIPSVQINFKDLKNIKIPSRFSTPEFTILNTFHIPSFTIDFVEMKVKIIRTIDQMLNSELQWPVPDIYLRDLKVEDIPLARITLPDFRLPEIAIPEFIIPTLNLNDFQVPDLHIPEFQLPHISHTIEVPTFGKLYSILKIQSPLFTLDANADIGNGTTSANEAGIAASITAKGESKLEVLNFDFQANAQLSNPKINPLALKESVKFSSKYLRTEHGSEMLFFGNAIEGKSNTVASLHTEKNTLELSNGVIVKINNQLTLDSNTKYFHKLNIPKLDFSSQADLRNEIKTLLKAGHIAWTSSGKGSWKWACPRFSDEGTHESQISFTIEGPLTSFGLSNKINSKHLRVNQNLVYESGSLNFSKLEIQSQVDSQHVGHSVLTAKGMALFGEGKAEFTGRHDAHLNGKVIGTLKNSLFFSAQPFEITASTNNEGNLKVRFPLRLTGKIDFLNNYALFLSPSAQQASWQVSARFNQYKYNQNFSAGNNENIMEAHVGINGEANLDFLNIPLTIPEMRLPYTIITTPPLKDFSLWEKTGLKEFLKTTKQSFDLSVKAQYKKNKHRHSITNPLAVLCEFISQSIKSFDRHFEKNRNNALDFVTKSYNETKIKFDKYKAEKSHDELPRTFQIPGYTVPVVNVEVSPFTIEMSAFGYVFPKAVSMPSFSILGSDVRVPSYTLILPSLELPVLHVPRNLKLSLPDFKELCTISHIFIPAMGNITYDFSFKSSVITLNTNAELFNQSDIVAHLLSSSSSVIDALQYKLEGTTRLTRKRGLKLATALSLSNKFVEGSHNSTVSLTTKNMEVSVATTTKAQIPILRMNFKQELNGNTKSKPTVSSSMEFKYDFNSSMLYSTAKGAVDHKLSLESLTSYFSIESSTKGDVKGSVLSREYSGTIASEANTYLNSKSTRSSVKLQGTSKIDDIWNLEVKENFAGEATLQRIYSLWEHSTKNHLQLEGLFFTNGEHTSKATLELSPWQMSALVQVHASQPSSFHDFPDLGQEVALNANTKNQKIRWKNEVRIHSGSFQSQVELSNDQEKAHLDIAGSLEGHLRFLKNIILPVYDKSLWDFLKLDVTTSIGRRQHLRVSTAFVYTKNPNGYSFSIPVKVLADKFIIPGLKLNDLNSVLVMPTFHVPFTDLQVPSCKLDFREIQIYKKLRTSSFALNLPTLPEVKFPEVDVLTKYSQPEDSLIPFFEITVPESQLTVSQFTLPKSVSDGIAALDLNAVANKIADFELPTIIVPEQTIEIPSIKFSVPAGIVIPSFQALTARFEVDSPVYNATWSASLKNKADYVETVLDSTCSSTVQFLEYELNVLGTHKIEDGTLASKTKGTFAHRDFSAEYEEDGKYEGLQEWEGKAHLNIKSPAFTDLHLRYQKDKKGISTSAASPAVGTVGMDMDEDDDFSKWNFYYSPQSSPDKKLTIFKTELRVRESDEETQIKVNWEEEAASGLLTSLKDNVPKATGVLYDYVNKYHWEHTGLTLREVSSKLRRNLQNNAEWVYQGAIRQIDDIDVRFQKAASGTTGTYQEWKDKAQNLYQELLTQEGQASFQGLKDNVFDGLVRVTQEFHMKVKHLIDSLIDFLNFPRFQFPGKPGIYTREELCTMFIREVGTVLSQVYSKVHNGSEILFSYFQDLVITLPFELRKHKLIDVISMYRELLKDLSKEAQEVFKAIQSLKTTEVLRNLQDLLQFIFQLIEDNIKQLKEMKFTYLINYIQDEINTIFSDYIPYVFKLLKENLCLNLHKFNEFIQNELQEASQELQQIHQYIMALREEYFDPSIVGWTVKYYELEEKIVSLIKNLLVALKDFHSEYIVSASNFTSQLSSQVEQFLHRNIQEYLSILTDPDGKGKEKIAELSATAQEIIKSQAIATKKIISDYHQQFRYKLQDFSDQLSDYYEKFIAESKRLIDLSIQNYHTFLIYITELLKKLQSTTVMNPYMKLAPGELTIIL

B1: LDLR^ecto-(His)6 (domain or fragment)
chain: not shown
B1 displayed a Kd of 2 nM.
